In PMC10462681:

How the values were obtained:
[1] = target: LRP4-HA mutant p.Tyr607Cys (c.1820A > G; LRP4-Mut), expressed in HEK293T cells (human) (UniProt O75096)
[2] = target: LRP4-HA mutant p.Tyr607Cys (c.1820A > G; LRP4-Mut), expressed in HEK293T cells (human) (UniProt O75096); test: pull-down; LRP4-HA (wild-type or mutated) from transfected HEK293T cells immobilised on beads with anti-HA antibody, incubated with or without recombinant agrin (1 µg/mL); western blot with anti-agrin antibody; N = 3 blots

MuSK phosphorylation (anti-4G10 blot of immunoprecipitated MuSK-Flag) induced by agrin (0.4 µg/ml; 1, 3 and 6 h) in HEK293T cells expressing MuSK-Flag and mutant LRP4-HA, against wild-type LRP4-HA [1]: 40 % decrease
percent decrease of binding against wild-type LRP4 [2]: 80%
Substance: recombinant rat agrin (neural agrin) (from UniProt P25304 1-1959) (ligand)
